Measurements reported in US5942405A, “Therapeutic and screening methods using C3a receptor and C3a” (priority 1997, dated 1999).

T1: C3a Receptor (Homo sapiens, UniProt Q16581)
T1 sequence (Q16581 1-482 F151C): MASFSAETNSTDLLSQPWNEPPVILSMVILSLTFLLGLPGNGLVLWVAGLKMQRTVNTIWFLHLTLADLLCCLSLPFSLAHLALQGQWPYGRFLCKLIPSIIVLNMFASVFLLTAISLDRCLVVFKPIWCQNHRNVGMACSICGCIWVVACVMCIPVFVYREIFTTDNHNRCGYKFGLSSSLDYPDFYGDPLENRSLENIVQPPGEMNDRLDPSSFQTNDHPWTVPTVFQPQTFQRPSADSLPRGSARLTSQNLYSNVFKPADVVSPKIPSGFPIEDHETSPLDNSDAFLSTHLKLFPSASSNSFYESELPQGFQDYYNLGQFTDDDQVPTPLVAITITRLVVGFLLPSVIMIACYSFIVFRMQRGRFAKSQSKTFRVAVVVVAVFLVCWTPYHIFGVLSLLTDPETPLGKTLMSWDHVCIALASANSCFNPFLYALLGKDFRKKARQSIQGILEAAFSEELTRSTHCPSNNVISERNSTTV

B1: rC5a: Human rC5a was expressed in E. coli and purified to homogeneity (protein, UniProt P01031 678-751, looked up)
C5a anaphylatoxin: TLQKKIEEIAAKYKHSVVKKCCYDGACVNNDETCEQRAARISLGPRCIKAFTECCVVASQLRANISHKDMQLGR
modifications: C5a anaphylatoxin recombinant, E. coli
notes: Human rC5a was expressed in E. coli and purified to homogeneity

Target: T1, C3a Receptor
Experiment: Electrophysiological response (Ca2+ mediated chloride currents, two electrode voltage clamp) of Xenopus oocytes injected with C3a Receptor cRNA
Format: cell-based
Parameters: cDNA encoding a complete orphan GPCR of 482 amino acids; expressed in transfected cells; host or cells: Xenopus laevis oocytes microinjected with cRNA, with or without U937 total RNA
Settings: for electrophysiological response of oocytes expressing C3a Receptor: oocytes co-injected with C3a Receptor cRNA (10 ng) and U937 RNA (25 ng), ligands 10 nM; for electrophysiological response of oocytes injected with C3a Receptor cRNA or U937 RNA alone: 10 nM ligand
Experimental: (A) Electrophysiological response of Xenopus oocytes injected with cRNA for C3a Receptor (10 ng), total U937 RNA (25 ng), or a mixture of C3a Receptor (10 ng) and U937 RNA (25 ng) to 10 nM rC5a, 10 nM C3a analogue peptide, 10 nM platelet activating factor (PAF), 10 nM fMetLeuPhe. Inset, represents typical response of oocytes co-injected with C3a Receptor cRNA+U937 RNA to 10 nM C3a. (B) Electrophysiological response of oocytes injected with C5a-R cRNA (10 ng), U937 RNA (25 ng) or a mixture of C5a-R and U937 RNA, to 10 nM rC5a or 10 nM C3a analogue peptide. […] Calcium mobilization by Fura 2 loaded cells expressing C5a receptor (FIGS. 4A & 4C) or C3a Receptor (FIGS. 4B & 4D) in response to rC5a (10 nM, FIG. 4A or 100 nM, FIG. 4B) or C3a analogue peptide (1 uM, FIGS. 4C & 4D).
Capped cRNA transcripts were generated from linearized C3a Receptor and C5a-R plasmid DNA as previously described (Kumar, C. S., et al (1989) J. Biol. Chem. 264, 17939-17946) and suspended in sterile water at a concentration of 0.2 μg/μl. Ovarian lobes were surgically removed from adult female Xenopus laevis frogs and defolliculated Stage V oocytes were harvested by manual dissection (Smith, L. D., et al (1991) Methods in Cell Biology, 36, 45-54. Edited by B. K. Kay and H. B. Peng, Academic Press Inc., New York.). Oocytes were microinjected with C3a Receptor or C5a-R cRNA transcripts (10 ng/oocyte) with or without U937 total RNA (25 ng/oocyte) in a 50 nl volume using a Drummond microinjection apparatus and maintained in modified Barth's saline (Power, C. A., et al (1995) J. Biol. Chem., 270,19495-19500 ) at 18° C. Electrophysiological recordings from an average of 10 oocytes were made 48 h later at room temperature using the two electrode voltage clamp (Warner Instruments) technique. Membrane potentials were routinely clamped at -60 mV. Results represent average response determined in three separate experiments.
The chemotactic receptors for C5a and the fMLP-R have previously been functionally expressed in Xenopus laevis oocytes (Kroll, B., et al (1991) FEBS Lett. 291, 208-210; Murphy, P. M. & McDermott, D. (1991) J Biol. Chem. 266, 12560-12567; Murphy, P. M., Gallin, E. K., and Tiffany, H. L. (1990) J Immunol. 145, 2227-2234; Schultz, P., et al (1992) Cellular Signalling 4, 153-161) and, unlike all other GPCRs tested in this system, injection of cRNA for the cloned chemotactic receptors alone is insufficient to stimulate signal transduction in response to ligand binding (Kroll, B., et al (1991) FEBS Lett. 291, 208-210; Murphy, P. M. & McDermott, D. (1991) J Biol. Chem. 266, 12560-12567). Functional expression of both of these chemotactic receptors, as monitored by induction of Ca^2+ mediated chloride currents, requires the co-injection of a complimentary human factor which can be supplied by total RNA from myeloid or liver cells (Kroll, B., et al (1991) FEBS Lett. 291, 208-210; Murphy, P. M. & McDermott, D. (1991) J Biol. Chem. 266, 12560-12567). The co-factor is required for receptor-mediated signal transduction but not for expression of the C5a-R or fMLF-R on the surface of the oocytes (Murphy, P. M., et al (1990) J Immunol. 145, 2227-2234). […] Xenopus oocytes were used to functionally characterize C3a Receptor. […] Like the C5a-R and the fMLF-R, the response was dependent on the co-injection of a cofactor present in total HL-60 or U937 RNA. […] (FIG. 3B). Both the C5a-R as well as C3a Receptor elicited in oocytes a promiscuous response to the two anaphylatoxins.

Molecule | electrophysiological response of oocytes expressing C3a Receptor | electrophysiological response of oocytes expressing C3a Receptor (listed as native ligand) | electrophysiological response of oocytes injected with C3a Receptor cRNA or U937 RNA alone | electrophysiological response of oocytes expressing C3a Receptor (listed as C3a carboxy-terminal analog synthetic peptide) | electrophysiological response of oocytes expressing C3a Receptor (listed as C5a)
C3a: C3a was purchased from Advanced Research Technologies, San Diego; anaphylatoxin; radioiodinated for binding | respond | elicited similar responses | – | – | –
WWGKKYRASKLGLAR [C3a analogue synthetic peptide, reference compound] | respond | – | did not elicit any response | elicited an electrophysiological response | –
B1 | – | – | did not elicit any response | – | respond
